Assay [1] has as its target HLA-A*02:01. In words: IEDB peptide-MHC binding, purified MHC/competitive/fluorescence; ≥ and ≤ were set here for values at or beyond the usual limits of such assays. To be noted: source organism: Vaccinia virus WR.
Assay [2] has as its target HLA-A*24:02. The description is as above. To be noted: source organism: Vaccinia virus WR.
In a further assay the target is HLA-B*15:01. Kind of assay: IEDB peptide-MHC binding, purified MHC/competitive/radioactivity; filed as Kd, often an IC50 or EC50 that approximates it; ≥ and ≤ were set here for values at or beyond the usual limits of such assays.
The target of the next assay is HLA-A*03:01. Described as above. The note with it: source organism: Dengue virus 4 Philippines/H241/1956.
In another assay the target is HLA-A*30:01. The description is as above.
The target of another assay is HLA-A*68:01. Described as above. To be noted: source organism: Dengue virus 4 Philippines/H241/1956.
The next assay addresses HLA-A*31:01. Described as above. To be noted: source organism: Dengue virus 4 Philippines/H241/1956.
The target in a further assay is HLA-A*11:01. The assay is described as above. To be noted: source organism: Dengue virus 4 Philippines/H241/1956.
Another assay has as its target HLA-A*32:01. Described as above.
In another assay the target is HLA-B*53:01. The description is as above. To be noted: source organism: Dengue virus 4 Philippines/H241/1956.
The target in a further assay is HLA-B*07:02. Described as above.
Another assay concerns the target HLA-B*35:01. Described as above. To be noted: source organism: Dengue virus 4 Philippines/H241/1956.
The next assay has as its target HLA-A*68:02. Described as above.
Assay [3] deals with HLA-A*02:01. Described as above.
In the next assay the target is HLA-A*02:03. The assay is described as above.
The target of another assay is HLA-A*02:02. The assay is described as above.
Another assay addresses HLA-A*02:06. The description is as above.
Another assay concerns the target HLA-A*26:01. The assay is described as above.
Another assay addresses HLA-A*01:01. The assay is described as above.
The target of another assay is HLA-A*29:02. The assay is described as above.
Another assay addresses HLA-A*30:02. The description is as above.
The next assay has as its target HLA-A*23:01. The description is as above.
The target in assay [4] is HLA-A*24:02. The description is as above.
The target of another assay is HLA-B*08:01. The assay is described as above. To be noted: source organism: Dengue virus 1 Nauru/West Pac/1974.
Where [5] appears, read: source organism: Vaccinia virus WR.
The mark [6] stands for this setting: source organism: Dengue virus 4 Philippines/H241/1956.
[7] abbreviates: source organism: Hepacivirus hominis.
[8] abbreviates: source organism: Lymphocytic choriomeningitis virus (strain Armstrong).
Setting [9] is: source organism: Dengue virus 1 Nauru/West Pac/1974.
Where [10] appears, read: source organism: Mammarenavirus juninense.
The mark [11] stands for this setting: source organism: Dengue virus 1 Brazil/97-11/1997.
The mark [12] stands for this setting: source organism: Mammarenavirus brazilense.

As usually defined, the IC50 is the point on the concentration scale where inhibition reaches its midpoint. Read a high IC50 as a need for much substance. As to LYLVDYGLV, the IC50 in the assay with HLA-A*02:01 [1] was not below 89800 nM; with HLA-A*24:02 [2], 212 nM.

Usually Kd stands for the equilibrium constant for the complex coming apart. For LLFILFYFA, the Kd with HLA-B*15:01 (setting [5]) amounted to 242 nM.

As for KTFDTEYPK, the Kd in the assay with HLA-A*03:01 came out at 26.1 nM; with HLA-A*30:01 (setting [6]) it was 80 nM; with HLA-A*68:01, 104 nM; in the assay with HLA-A*31:01 it was 29.8 nM; with HLA-A*11:01 it was 126 nM; with HLA-A*32:01 (setting [6]), 2800 nM.

On to TPEGIIPTLF, for which the equilibrium dissociation constant (Kd) with HLA-B*53:01 was found to be 38.1 nM; in the assay with HLA-B*07:02 (setting [6]) it was 920 nM; in the assay with HLA-B*35:01, 93.5 nM.

ALALEEKRRL: the equilibrium dissociation constant (Kd) was not below 63800 nM in the assay with HLA-A*68:02 (source organism: Homo sapiens) and 12200 nM in the assay with HLA-A*02:01 [3] (source organism: Homo sapiens).

For the sequence KLSGLGFNAV, the Kd with HLA-A*02:03 (setting [7]) came out at 2.8 nM; with HLA-A*02:02 (setting [7]) it was 5.4 nM; with HLA-A*02:06 (setting [7]), 24.5 nM; with HLA-A*68:02 (setting [7]) it was 6110 nM; with HLA-A*02:01 [3] (setting [7]), 19.3 nM.

Turning to DSEEYHLLY, the Kd is 14400 nM with HLA-A*26:01 (setting [8]); 11300 nM with HLA-A*30:01 (setting [8]); 2.78 nM with HLA-A*01:01 (setting [8]); not below 77800 nM in the assay with HLA-A*32:01 (setting [8]); 289 nM with HLA-A*29:02 (setting [8]); 3750 nM with HLA-A*30:02 (setting [8]).

For the sequence SLFIESSICL, the Kd was found to be 293 nM with HLA-A*02:03 (setting [5]), 99.2 nM with HLA-A*02:02 (setting [5]), 982 nM with HLA-A*02:06 (setting [5]) and 2 nM in the assay with HLA-A*02:01 [3] (setting [5]).

As to KTGESSRCY, the Kd with HLA-A*26:01 (setting [8]) was not below 77900 nM; with HLA-A*30:01 (setting [8]), 3520 nM; in the assay with HLA-A*01:01 (setting [8]), 7280 nM; with HLA-A*32:01 (setting [8]) it was not below 77800 nM; with HLA-A*29:02 (setting [8]), 4380 nM; with HLA-A*30:02 (setting [8]) it was 101 nM.

As for MMLKLLTDF, the Kd stood at 357 nM with HLA-A*23:01 (setting [9]), 56.7 nM with HLA-A*32:01 (setting [9]) and 11.5 nM with HLA-B*15:01 (setting [9]).

Regarding LQIFSNSVG, the Kd with HLA-B*15:01 (setting [5]) is 2.07 nM.

Regarding EDAMPGVLSY, the Kd was 1810 nM with HLA-A*26:01 (setting [10]); 16400 nM with HLA-A*23:01 (setting [10]); not below 70400 nM in the assay with HLA-A*30:01 (setting [10]); 10600 nM with HLA-A*01:01 (setting [10]); not below 69900 nM with HLA-A*32:01 (setting [10]); 11100 nM in the assay with HLA-A*29:02 (setting [10]). Moreover, the figures for the Kd with HLA-A*24:02 [4] (setting [10]) and with HLA-A*30:02 (setting [10]) were not below 46400 nM and 15500 nM, respectively.

Turning to SMRKTDWLPM, in the assay with HLA-B*15:01 (source organism: Dengue virus 3 Martinique/1243/1999), the Kd was 134 nM.

For VLTGGVTLFF, the Kd worked out at 1610 nM with HLA-A*24:02 [4] (setting [11]) and 194 nM with HLA-B*15:01 (setting [11]).

In the case of VMTKWCAPF, the equilibrium dissociation constant (Kd) in the assay with HLA-B*15:01 (setting [5]) stood at 1.86 nM.

As to EIAKYGHSF, the Kd in the assay with HLA-B*15:01 (setting [5]) came out at 57.6 nM.

For the sequence TPKAKRGTAQ, the Kd in the assay with HLA-B*07:02 (source organism: Dengue virus 1 Singapore/S275/1990) is 1410 nM.

For AAKGASMTL, the Kd with HLA-A*30:01 (setting [5]) is 0.998 nM.

As to RARNRVSTV, the Kd in the assay with HLA-B*08:01 came out at 9.01 nM; with HLA-A*30:01 (setting [9]), 23 nM; with HLA-B*07:02 (setting [9]), 2.62 nM.

Consider TADDITMGY, for which the Kd was 4700 nM in the assay with HLA-A*26:01 (setting [12]); not below 78100 nM with HLA-A*30:01 (setting [12]); 18.8 nM with HLA-A*01:01 (setting [12]); not below 77800 nM in the assay with HLA-A*32:01 (setting [12]); 11300 nM in the assay with HLA-A*29:02 (setting [12]); 9930 nM with HLA-A*30:02 (setting [12]).

QAVNNLVEL: in the assay with HLA-A*02:01 [3] (source organism: Lassa virus Josiah), the Kd came out at 4570 nM.

(Values after the Immune Epitope Database (IEDB).)
